From patent US20220144960A1 (NANJING LEGEND BIOTECH, published 2022)
Substitutions are numbered along the chain they refer to. Values belong to the binder of their own block, whether it stands above or below them.

Columns and labels:
[1] = molecular target: T1, human CD30 CRD1 (F19-Q68) Fc fusion protein with human IgG1 Fc fragment at the C terminus (human); test: SPR, captured Fab, Fc-fused CRD protein as analyte
T1 construct: also called CRD1 construct
Procedure: (§1) Some of these unique binders were subjected to for further characterization by surface plasmon resonance (SPR) on a BIAcore T200 instrument (GE Healthcare). The experiment was carried out as follows. The crude sdAb/Fab proteins were captured through an affinity tag (6×Histidine tag) onto the sensorchip. High-concentration (100.0 nM) of human CD30 (R&D systems, Cat. #6126-CD) flowed over the sensorchip surface, and were allowed to bind the antibody fragments for 300 s followed by injection of the running buffer to allow dissociation of the complex. On-rate ([…] and off-rate (kd) were roughly calculated based on one association and dissociation curve, and were used to estimate the equilibrium dissociation constant (KD). 5F11 scFv (SEQ ID NO:216, prepared according to WO2017066122) was used as a positive control. Data were summarized in Table 3 below. The first 10 antibodies in Table 3 were sdAbs with amino acid sequence ID numbers summarized in Table 1, the last antibody was 5F11 scFv, and the remainings were human Fabs with CDR and scFv amino acid sequence ID numbers in Table 2.
(§2) Cysteine rich domains (CRDs) of human CD30 and the flanking residues, i.e., CRD1 (F19-Q68, SEQ ID NO: 3), CRD2 (R66-E107, SEQ ID NO: 4), CRD3 (E107-5153, SEQ ID NO: 5), CRD4 (E150-Q243, SEQ ID NO: 6), CRD5 (R241-E282, SEQ ID NO: 7) and CRD6 (E282-K379, SEQ ID NO: 8), were produced as Fc fusion proteins with human IgG1 Fc fragment (SEQ ID NO: 217) at the C terminus and used for epitope determination using SPR following the protocol similar to what was described above, only the analytes used were human IgG1 Fc-fused CRD proteins.

[2] = molecular target: T2, human CD30 CRD2 (R66-E107) Fc fusion protein with human IgG1 Fc fragment at the C terminus (human); test: SPR, captured Fab, Fc-fused CRD protein as analyte
T2 construct: also called CRD2 construct
Procedure: as §1, §2

[3] = molecular target: T3, human CD30 CRD6 (E282-K379) Fc fusion protein with human IgG1 Fc fragment at the C terminus (human); test: SPR, captured Fab, Fc-fused CRD protein as analyte
T3 construct: also called CRD6 construct
Procedure: as §1, §2

[4] = molecular target: T4, human CD30 CRD5 (R241-E282) Fc fusion protein with human IgG1 Fc fragment at the C terminus (human); test: SPR, captured Fab, Fc-fused CRD protein as analyte
T4 construct: also called CRD5 construct
Procedure: as §1, §2

[5] = molecular target: T5, human CD30 CRD3 (E107-S153) Fc fusion protein with human IgG1 Fc fragment at the C terminus (human); test: SPR, captured Fab, Fc-fused CRD protein as analyte
T5 construct: also called CRD3 construct
Procedure: as §1, §2

[6] = molecular target: T6, human CD30 CRD4 (E150-Q243) Fc fusion protein with human IgG1 Fc fragment at the C terminus (human); test: SPR, captured Fab, Fc-fused CRD protein as analyte
T6 construct: also called CRD4 construct
Procedure: as §1, §2

[7] = molecular target: T7, recombinant human CD30 extra cellular domain (ECD) protein (human, UniProt P28908 19-379); test: SPR Biacore T200, His-tagged sdAb/Fab captured, 100.0 nM human CD30 as analyte, single curve
T7 construct: Bought from R&D systems; also called rhCD30; human CD30 ECD
T7 sequence: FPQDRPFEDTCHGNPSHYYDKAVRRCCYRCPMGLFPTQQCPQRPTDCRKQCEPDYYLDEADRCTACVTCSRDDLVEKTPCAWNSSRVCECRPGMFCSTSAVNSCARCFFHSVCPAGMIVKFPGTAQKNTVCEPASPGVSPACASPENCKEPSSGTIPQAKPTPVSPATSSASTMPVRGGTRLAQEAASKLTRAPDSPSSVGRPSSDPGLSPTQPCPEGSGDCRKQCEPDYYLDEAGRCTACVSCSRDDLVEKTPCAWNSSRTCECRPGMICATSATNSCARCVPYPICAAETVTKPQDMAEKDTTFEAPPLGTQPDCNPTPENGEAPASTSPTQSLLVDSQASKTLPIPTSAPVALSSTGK
Procedure: as §1

[8] = molecular target: T8, rhesus CD30 ECD (rhesus, UniProt P28908 19-379 (human entry)); test: ELISA on rhesus CD30 ECD protein; member of the group by paragraph 437
T8 construct: Produced in house; also called recombinant rhesus CD30; rhesus CD30 protein
T8 chain: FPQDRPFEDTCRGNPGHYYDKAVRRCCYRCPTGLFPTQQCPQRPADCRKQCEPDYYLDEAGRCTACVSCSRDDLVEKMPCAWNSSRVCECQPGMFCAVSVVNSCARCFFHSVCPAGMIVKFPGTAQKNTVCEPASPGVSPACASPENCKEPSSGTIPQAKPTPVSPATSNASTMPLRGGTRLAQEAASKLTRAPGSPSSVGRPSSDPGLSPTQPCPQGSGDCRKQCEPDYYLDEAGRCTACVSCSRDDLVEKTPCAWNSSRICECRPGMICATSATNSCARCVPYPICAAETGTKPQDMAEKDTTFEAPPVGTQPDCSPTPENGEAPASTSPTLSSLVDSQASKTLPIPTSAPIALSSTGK

[9] = molecular target: T7, recombinant human CD30 extra cellular …; test: SPR Biacore T200, scFv captured, 100.0 nM human CD30 as analyte, single curve
Procedure: as §1

[10] = molecular target: T7, recombinant human CD30 extra cellular …; test: as above; remark: listed apart in the source
Procedure: as §1

[11] = molecular target: T3, human CD30 CRD6 (E282-K379) Fc fusion …; test: SPR, captured scFv, human IgG1 Fc-fused CRD protein as analyte
Procedure: as §1, with “2. […]” for “2.”

[12] = molecular target: T7, recombinant human CD30 extra cellular …; test: SPR Biacore T200, scFv captured, 100.0 nM human CD30 as analyte, single curve; beyond off-rate detection limit
Procedure: as §1

[13] = molecular target: T1, human CD30 CRD1 (F19-Q68) Fc fusion …; test: ELISA on the CD30 fragment CRD1, absorbance OD 450 nm; sdAb concentration not given

T3 sequence (chain, as listed by the source limits assumed): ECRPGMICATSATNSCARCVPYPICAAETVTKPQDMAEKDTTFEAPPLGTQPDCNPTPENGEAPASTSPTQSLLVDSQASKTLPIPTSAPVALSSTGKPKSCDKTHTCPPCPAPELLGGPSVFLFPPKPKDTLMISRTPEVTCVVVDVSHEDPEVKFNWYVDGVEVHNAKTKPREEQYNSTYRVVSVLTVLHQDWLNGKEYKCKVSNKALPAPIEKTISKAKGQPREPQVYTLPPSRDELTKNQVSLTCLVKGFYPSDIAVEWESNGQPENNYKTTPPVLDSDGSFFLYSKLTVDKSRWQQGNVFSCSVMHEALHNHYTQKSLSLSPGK
T6 sequence (chain, as listed by the source limits assumed): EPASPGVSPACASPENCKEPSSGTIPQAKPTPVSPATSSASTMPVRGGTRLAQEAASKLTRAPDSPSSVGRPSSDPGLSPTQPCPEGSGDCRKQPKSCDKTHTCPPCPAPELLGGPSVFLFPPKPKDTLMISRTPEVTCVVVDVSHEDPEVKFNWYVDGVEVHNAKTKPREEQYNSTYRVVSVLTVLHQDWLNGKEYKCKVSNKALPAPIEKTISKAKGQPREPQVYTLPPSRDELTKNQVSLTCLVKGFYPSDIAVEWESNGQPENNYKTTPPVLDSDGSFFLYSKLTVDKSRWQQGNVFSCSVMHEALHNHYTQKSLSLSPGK

binding result [1]: no binding
binding result [2]: no binding
binding result [3]: no binding
binding result [4]: no binding
binding result [5]: no binding
binding result [6]: no binding
Kd [7]: 170 nM
koff [7]: 0.015 s⁻¹
kon [7]: 92000 M⁻¹ s⁻¹
rhCD30 Binding (RU) [7]: 44.6 RU
binding result [8]: binds
B1: AS57911 human Fab (Fab, V domains shown)
VH: EVQLVESGGGLVQPGGSLRLSCAASGFNISSSYIHWVRQAPGKGLEWVAYISSYYSYTYYADSVKGRFTISADTSKNTAYLQMNSLRAEDTAVYYCARGYPYGMDYWGQGTLVTVSS
VL: DIQMTQSPSSLSASVGDRVTITCRASQSVSSAVAWYQQKPGKAPKLLIYSASSLYSGVPSRFSGSRSGTDFTLTISSLQPEDFATYYCQQSHALITFGQGTKVEIK
notes: Human Fab from a synthetic human Fab library, crude protein from E. coli with 6xHistidine tag

binding result [1]: no binding
binding result [2]: no binding
binding result [3]: no binding
binding result [4]: no binding
binding result [5]: no binding
binding result [6]: no binding
Kd [7]: 27 nM
koff [7]: 0.0022 s⁻¹
kon [7]: 82000 M⁻¹ s⁻¹
rhCD30 Binding (RU) [7]: 83.6 RU
binding result [8]: binds
B2: AS57659 human Fab (Fab, V domains shown)
VH: EVQLVESGGGLVQPGGSLRLSCAASGFNIYSYYIHWVRQAPGKGLEWVASIYSSYSSTYYADSVKGRFTISADTSKNTAYLQMNSLRAEDTAVYYCARSWFSYPGLDYWGQGTLVTVSS
VL: B1 VL with S91P, H92Y, A93Y
notes: as for B1

Kd [9]: < 0.0862 nM
kon [9]: 120000 M⁻¹ s⁻¹
Kd [10]: < 0.1 nM
binding result [11]: binds
koff [12]: < 1e-05 s⁻¹
B3: 5F11 scFv (scFv)
scFv: DIQMTQSPTSLSASVGDRVTITCRASQGISSWLTWYQQKPEKAPKSLIYAASSLQSGVPSRFSGSGSGTDFTLTISSLQPEDFATYYCQQYDSYPITFGQGTRLEIKGSTSGSGKPGSGEGSTKGQVQLQQWGAGLLKPSETLSLTCAVYGGSFSAYYWSWIRQPPGKGLEWIGDINHGGGTNYNPSLKSRVTISVDTSKNQFSLKLNSVTAADTAVYYCASLTAYWGQGSLVTVSS
notes: Positive control; captured like the other fragments, tag not spelled out for it

binding result [1]: no binding
binding result [2]: no binding
binding result [3]: no binding
binding result [4]: no binding
binding result [5]: no binding
binding result [6]: no binding
Kd [7]: 11 nM
koff [7]: 0.0011 s⁻¹
kon [7]: 98000 M⁻¹ s⁻¹
rhCD30 Binding (RU) [7]: 37.7 RU
binding result [8]: binds
B4: AS57765 human Fab (Fab, V domains shown)
VH: EVQLVESGGGLVQPGGSLRLSCAASGFNIYYSYMHWVRQAPGKGLEWVAYIYPYSGSTSYADSVKGRFTISADTSKNTAYLQMNSLRAEDTAVYYCARPAVHWHGYGGGYYYGLDYWGQGTLVTVSS
VL: DIQMTQSPSSLSASVGDRVTITCRASQSVSSAVAWYQQKPGKAPKLLIYSASSLYSGVPSRFSGSRSGTDFTLTISSLQPEDFATYYCQQAYYSLITFGQGTKVEIK
notes: as for B1

binding result [13]: binds
Kd [7]: 3 nM
koff [7]: 0.00021 s⁻¹
kon [7]: 69000 M⁻¹ s⁻¹
rhCD30 Binding (RU) [7]: 569 RU
binding result [8]: binds
B5: AS53574 sdAb (VHH)
VHH: QVKLVESGGGSVQAGGSLRLSCAASGYIYSSNCMGWFRQAPGKEREWVARIHTGSGSTYYADSVKGRFTISQDNAKNTVYLQMNSLRPEDTAMYDCAAGRVVLGAVVCTNEYWGQGTQVTVSS
notes: Camel sdAb

binding result [13]: binds
Kd [7]: 80 nM
koff [7]: 0.0085 s⁻¹
kon [7]: 110000 M⁻¹ s⁻¹
rhCD30 Binding (RU) [7]: 101 RU
binding result [8]: binds
B6: AS53445 sdAb (VHH)
VHH: QVQLVESGGGSVQAGGSLRLSCTASGYIFCMGWFRQAPGKAREGIATIYTGGDSTYYDDSVKGRFTISRDNAKNTVYLQMNSLKPEDTAMYYCAAGGQECYLTNWVSYWGQGTQVTVSS
notes: Camel sdAb
